# [ ]: non-standard residue; d: D form. The star is where a group is joined. dye2 = 5-carboxy-2′,7′-dipyridyl-sulfonefluorescein (Dye 2); Undecanoyl = CCCCCCCCCCC(=O)*; code O = not defined here
# B1: protein kinase p38βII (protein)
# chain: MSGPRAGFYRQELNKTVWEVPQRLQGLRPVGSGAYGSVCSAYDARLRQKVAVKKLSRPFQSLIHARRTYRELRLLKHLKHENVIGLLDVFTPATSIEDFSEVYLVTTLMGADLNNIVKCQALSDEHVQFLVYQLLRGLKYIHSAGIIHRDLKPSNVAVNEDCELRILDFGLARQADEEMTGYVATRWYRAPEIMLNWMHYNQTVDIWSVGCIMAELLQGKALFPGSDYIDQLKRIMEVVGTPSPEVLAKISSEHARTYIQSLPPMPQKDLSSIFRGANPLAIDLLGRMLVLDSDQRVSAAEALAHAYFSQYHDPEDEPEAEPYDESVEAKERTLEEWKELTYQEVLSFKPPEPPKPPGSLEIEQ
# How the values were obtained:
# [1] = cited from earlier work
# protein kinase p38βII = protein kinase p38βII (Homo sapiens, UniProt Q15759); experiment: Fluorogenic protein kinase assay, real-time fluorescence in 384-well plates; format: biochemical; conditions: substrate 8 μM; 10 and 100 μM ATP; compared with the kinase substrate with one recognition moiety (FIGS. 6A-6B)
# Description: Kinase assays were performed using Coming 384-well, black, non-binding surface (NBS), microwell plates. Fluorescence was read in real time using a […] Gemini XS plate reader, with excitation and emission set at 500 and 550 respectively. The plate was read every minute for one hour at ambient temperature
# Concentrations of dye-labeled peptides were determined by dilution of the purified peptides into dimethylformamide (200 μL) with 1 M NaOH (5 μL) and measuring the absorbance of either 5-carboxy-2′,7′-dipyridyl-sulfonefluorescein (i.e. dye2) at its absorbance maximum (548 nm) or 2′,7′,4,7-tetachloro-5-carboxy fluorescein (i.e. 2′,7′-dichloro-5-carboxy-4,7-dichlorofluorescein or “tet”) at its absorbance maximum (541 nm). The extinction coefficient of both dyes was assumed to be 80,000 cm^−1M^−1.
# […] The solution was pipetted into wells of a 384-well plate ([…] per well). Varying concentrations of ATP (final conc 10 and 100 μM) were added to the wells to initiate the kinase reaction. The plate was read at 500 nm excitation, 550 nm emission, each minute for 1 hour. The signal to background ratio for the kinase substrate with two recognition moieties (compound 2) was improved as compared to the signal to background ratio for the kinase substrate with one recognition moiety.
# [2] = Net charge of substrate from its charged groups; format: physicochemical; conditions: pH 7.6; unphosphorylated substrate
# Source text: The net charge of the substrate can be established by including an appropriate number of negatively and positively charged groups in the substrate. For example, to establish a net neutral charge (net charge=0), the substrate is designed to contain an equal number of positively and negatively charged groups. […] Aspartate and glutamate contain carboxyl side chains having a single negative charge. A phosphoserine residue carries two negative charges on a phosphate group. […] In addition, the fluorescent moiety may also contain charged groups that should be considered to obtain a particular net charge of the substrate.
# This is offset by the guanidinium groups in the two arginine residues, for a total of two positive charges. Thus, the net charge of the compound is about 0 at pH 7.6.
# [3] = biological target: T1, C11-OOK(dye2)RRIPLSPLSPOOK(C11)-amide
# T1 chain: KRRIPLSPLSPK
# [4] = biological target: T2, C11OOK(dye 2)RRIPLSPOOK(C11)NH2
# T2 chain: KRRIPLSPK
molecule,measurement,setting,value
"N[C@@H](CS)C(=O)O [Cysteine (C), Cysteine]",pK / pKa of side chain,[1],about 8
"C11—OOK(dye2)RRIPLSPLSPOOK(C11)-amide ({Undecanoyl-code O-code O}-K(dye2)RRIPLSPLSP[code O][code O]K(Undecanoyl)-NH2; reading uncertain; also: printed as C11—OOK(dye2)RRIPLSPLSPOOK(C11)-amide) [compound 2, kinase substrate for p38βII; two recognition moieties, two hydrophobic moieties, Dye2]",signal to background ratio,protein kinase p38βII,improved signal to background ratio
same,net charge,[2],about 0
"N[C@@H](Cc1c[nH]cn1)C(=O)O [Histidine (H), Histidine]",pK / pKa of side chain,[1],about 7
B1,"signal to background ratio (fluorescence kinase assay, 10 and 100 µM ATP)",[3],The signal to background ratio for the kinase substrate with two recognition moieties (compound 2) was improved as compared to the signal to background ratio for the kinase substrate with one recognition moiety
same,"signal to background ratio, fold improvement over the substrate with one recognition moiety",[3],improved the signal to background ratio 3 to 5 fold
same,"rate of reaction / signal to background ratio (fluorescence kinase assay, 10 and 100 µM ATP)",[4],"comprising two protein kinase recognition moieties has an improved signal to background ratio as compared to the kinase substrate comprising one protein kinase recognition moiety, C11OOK(dye 2)RRIPLSPOOK(C11)NH2"
